The record followed here is patent US20190041402A1 (GOVERNING COUNCIL OF THE UNIVERSITY OF TORONTO, published 2019).

For test [1], the target named is T1, full-length murine βKlotho expressed in HEK293 cells (mouse, UniProt Q99N32 1-1043).
T1 construct: whole, on cells
T1 sequence (looked up): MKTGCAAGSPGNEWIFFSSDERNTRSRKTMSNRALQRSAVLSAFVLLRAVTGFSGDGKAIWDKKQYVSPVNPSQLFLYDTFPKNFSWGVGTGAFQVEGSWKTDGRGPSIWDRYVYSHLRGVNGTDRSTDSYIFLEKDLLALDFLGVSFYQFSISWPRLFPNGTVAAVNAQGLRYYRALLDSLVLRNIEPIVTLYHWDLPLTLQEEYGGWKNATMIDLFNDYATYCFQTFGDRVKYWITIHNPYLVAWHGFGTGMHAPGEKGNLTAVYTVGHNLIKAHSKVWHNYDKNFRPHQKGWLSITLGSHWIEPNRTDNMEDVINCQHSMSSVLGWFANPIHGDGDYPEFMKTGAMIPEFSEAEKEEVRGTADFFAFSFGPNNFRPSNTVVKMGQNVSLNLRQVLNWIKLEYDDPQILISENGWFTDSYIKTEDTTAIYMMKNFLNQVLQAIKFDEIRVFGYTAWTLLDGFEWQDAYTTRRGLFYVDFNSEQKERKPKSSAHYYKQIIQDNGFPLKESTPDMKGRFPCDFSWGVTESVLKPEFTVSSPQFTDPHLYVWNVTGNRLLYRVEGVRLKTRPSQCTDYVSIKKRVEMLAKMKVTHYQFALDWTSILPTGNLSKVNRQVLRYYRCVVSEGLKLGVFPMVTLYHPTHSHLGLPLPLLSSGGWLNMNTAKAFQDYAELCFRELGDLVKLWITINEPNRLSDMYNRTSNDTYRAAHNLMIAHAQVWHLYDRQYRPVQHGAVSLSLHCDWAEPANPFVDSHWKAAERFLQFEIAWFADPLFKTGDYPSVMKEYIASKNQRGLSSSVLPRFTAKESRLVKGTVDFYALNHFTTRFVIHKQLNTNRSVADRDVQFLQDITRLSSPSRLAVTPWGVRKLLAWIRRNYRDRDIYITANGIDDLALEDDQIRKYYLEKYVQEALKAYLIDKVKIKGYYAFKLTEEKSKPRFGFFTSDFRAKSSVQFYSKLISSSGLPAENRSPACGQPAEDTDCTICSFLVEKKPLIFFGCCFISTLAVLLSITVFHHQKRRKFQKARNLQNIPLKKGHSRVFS
Briefly: immunocytochemistry of transfected HEK293 cells.

For test [2], the target named is T2, mouse αKlotho (mouse, UniProt O35082 35-982).
T2 construct: also called Mu aKL
T2 sequence (looked up): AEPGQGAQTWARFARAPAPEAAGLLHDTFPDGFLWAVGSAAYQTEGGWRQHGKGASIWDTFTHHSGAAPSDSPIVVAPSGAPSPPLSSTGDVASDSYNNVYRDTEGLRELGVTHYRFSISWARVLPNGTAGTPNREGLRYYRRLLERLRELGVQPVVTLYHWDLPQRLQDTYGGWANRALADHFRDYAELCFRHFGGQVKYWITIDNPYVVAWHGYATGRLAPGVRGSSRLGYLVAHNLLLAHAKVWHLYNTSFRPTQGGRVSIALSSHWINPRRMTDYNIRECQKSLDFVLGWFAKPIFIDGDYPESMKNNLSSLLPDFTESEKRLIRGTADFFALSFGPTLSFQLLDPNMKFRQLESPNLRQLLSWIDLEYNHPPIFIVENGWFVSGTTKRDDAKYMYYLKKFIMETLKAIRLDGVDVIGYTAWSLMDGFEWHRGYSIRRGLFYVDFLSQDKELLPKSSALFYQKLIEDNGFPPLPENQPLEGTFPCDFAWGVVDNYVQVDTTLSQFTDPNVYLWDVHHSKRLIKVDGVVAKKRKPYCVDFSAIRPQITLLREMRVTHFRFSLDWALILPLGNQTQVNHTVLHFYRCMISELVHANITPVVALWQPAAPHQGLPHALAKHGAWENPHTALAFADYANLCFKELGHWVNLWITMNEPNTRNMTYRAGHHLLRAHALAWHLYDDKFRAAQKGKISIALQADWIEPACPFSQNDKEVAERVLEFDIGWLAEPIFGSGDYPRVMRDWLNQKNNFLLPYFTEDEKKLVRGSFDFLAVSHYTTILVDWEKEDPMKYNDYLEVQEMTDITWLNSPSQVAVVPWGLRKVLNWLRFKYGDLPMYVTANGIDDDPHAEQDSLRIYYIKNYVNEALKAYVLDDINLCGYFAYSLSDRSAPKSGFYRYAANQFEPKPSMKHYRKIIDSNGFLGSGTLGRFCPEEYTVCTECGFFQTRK
Kind of test: SPR (ProteOn XPR36), Fab captured by anti-IgG(H+L), mouse αKlotho injected in serial dilutions, Langmuir fit. The procedure:
Estimated affinities against human and mouse antigen for select αKlotho Fabs were obtained by surface plasmon resonance on a ProteOn XPR36 (FIG. 17). Fabs were captured using an anti-IgG(H+L) antibody and serial dilutions of αKlotho were injected. Binding curves were fitted to the Langmuir model. (A) Determined Kon, Koff and KD values. (B) and (C) Binding curves for human and mouse antigen respectively.

B1: sb106 Fab (Fab, V domains shown)
VH: EVQLVESGGGLVQPGGSLRLSCAASGFNISYYSIHWVRQAPGKGLEWVAYISPSYGYTSYADSVKGRFTISADTSKNTAYLQMNSLRAEDTAVYYCARYYVYASHGWAGYGMDYWGQGTLVTVSS
VL: DIQMTQSPSSLSASVGDRVTITCRASQSVSSAVAWYQQKPGKAPKLLIYSASSLYSGVPSRFSGSRSGTDFTLTISSLQPEDFATYYCQQAGYSPITFGQGTKVEIKR
notes: also called Fsb106; clone 48
For orientation: Kd means the equilibrium constant for the complex coming apart. The term koff denotes the rate constant with which the complex falls apart. Lower therefore signals a long-lived complex. In general, kon refers to the rate constant with which the complex forms. B1: the binding result in test [1] was “no binding (tested: 5 µg/ml)”. Further, in test [2], the Kd is 0.784 nM, the koff turned out to be 0.000159 s⁻¹ and the association rate constant (kon) is 202000 M⁻¹ s⁻¹.
